Experiments:
[1] = system: BCMA-negative K562; experiment: In vitro cytotoxicity assay (CellTiter-Glo 2.0, 384-well), Example B2; assay type: cell-based, human
Method: (§1) The in vitro efficacies of ADCs anti-BCMA-Compound 50, anti-BCMA-Compound 51, anti-BCMA-Compound 52, and anti-BCMA-Compound 53, were compared to anti-BCMA-Compound 3. Anti-BCMA-AB1 clone was conjugated with compounds 50, 51, 52, 53 or 3 and the ADCs were evaluated using the following human cancer cell lines: BCMA-negative K562 and BCMA-positive NCI-H929, purchased from the American Type Culture Collection (ATCC; Manassas, VA).
(§2) Cell Culture Method: The cell lines were cultured in RPMI-1640 medium (Catalog #10-041-CV: Corning) supplemented with 10-20% fetal bovine serum (FBS; Catalog #MT35011CV; Corning) and 1× penicillin-streptomycin (Catalog #30-002-Cl, Corning) and maintained at 37° C. in a 5% C02 humidified environment. Viable cell counts were made by Trypan blue exclusion using a Countess or Countess II automated cell counter.
(§3) The in vitro assays were performed as follows: All cells were harvested by removal of a portion of the cell culture suspension followed by centrifugation at 300 g for 5 minutes, followed by resuspension in cell culture medium (described above in Cell Culture method), viable cell count (as described above in Cell Culture method), and then seeded into 384-well white wall clear bottom plates (Catalog #3765, Corning) at a density of 2,500 cells/well in growth media. Plates were maintained at 37° C. The outer wells of plates contained medium only and were used for background subtraction for the cell viability assay. Working solutions of test articles were prepared at 2× final concentrations with 5-fold serial dilutions in complete growth medium. Cell treatment was performed in either technical triplicates or duplicates and maintained at 37° C. for 120-hour assay. After treatment, cell viability was determined by CellTiter-Glo 2.0 assay (Catalog #G9243; Promega; Madison, WI, USA) based on the manufacturer's instructions. CellTiter Glo reagent reacts with ATP in metabolically active cells to give a luminescent readout that is directly proportional to the number of viable cells. Briefly, plates were removed from the incubator and equilibrated to room temperature before addition of CellTiter Glo reagent. Luminescence was measured using a Tecan Spark microplate reader (Tecan; Mannedorf, Switzerland).
(§4) Data Analysis: For Cytotoxicity assays, raw luminescence data was background subtracted with average luminescence from the outer wells containing medium only and normalized to untreated controls using Excel (Microsoft; Albuquerque, NM). Dose-response relationships and EC50 values were determined based on non-linear regression analysis of normalized data fit to a four-parameter logistic equation using GraphPad Prism 8.0.

[2] = system: BCMA-positive NCI-H929; experiment: as above; assay type: cell-based, human
Method: as §1, §2, §3, §4

[3] = system: NCI-H929 (BCMA+) cells and K562 (BCMA −) cells; experiment: In vitro cytotoxicity assay, Example B2, statements across all cell lines; assay type: cell-based, human; conditions: regardless of BCMA expression level; read-out: average EC50, inhibition of cell proliferation across all cell lines
Method: as §1, with “VA). […]” for “VA).”
The in vitro assays were performed as follows: All cells were harvested by removal of a portion of the cell culture suspension followed by centrifugation at 300 g for 5 minutes, followed by resuspension in cell culture medium (described above in Cell Culture method), viable cell count (as described above in Cell Culture method), and then seeded into 384-well white wall clear bottom plates (Catalog #3765, Corning) at a density of 2,500 cells/well in growth media. […] After treatment, cell viability was determined by CellTiter-Glo 2.0 assay (Catalog #G9243; Promega; Madison, WI, USA) based on the manufacturer's instructions. CellTiter Glo reagent reacts with ATP in metabolically active cells to give a luminescent readout that is directly proportional to the number of viable cells. […] Luminescence was measured using a Tecan Spark microplate reader (Tecan; Mannedorf, Switzerland). […]

[4] = biological target: T1, Human BCMA (B Cell Maturation Antigen) (human, UniProt Q02223 1-184); experiment: cell-based or functional assay
T1 sequence: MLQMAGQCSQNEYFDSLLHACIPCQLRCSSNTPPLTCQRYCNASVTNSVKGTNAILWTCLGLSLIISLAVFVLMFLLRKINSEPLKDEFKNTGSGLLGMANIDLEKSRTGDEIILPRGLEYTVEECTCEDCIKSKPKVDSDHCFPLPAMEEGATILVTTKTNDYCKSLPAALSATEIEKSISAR

[5] = biological target: T1, Human BCMA (B Cell Maturation Antigen); experiment: cell-based or functional assay; remark: listed apart in the source
[6] = biological target: T1, Human BCMA (B Cell Maturation Antigen); experiment: cell-based or functional assay; remark: listed apart in the source
[7] = system: NCI-H929 (BCMA+) cells; experiment: In vitro cell viability assay (Cell Titer-Glo 2.0), Example B1; assay type: cell-based, human; conditions: 4-day assays, FIG. 2A
Method: (§5) The in vitro efficacies of ADCs anti-BCMA-Compound 1, anti-BCMA-Compound 2, anti-BCMA-Compound 3, anti-BCMA-Compound 4, anti-BCMA-Compound 5, anti-BCMA-Compound 6, anti-BCMA-Compound 7, and anti-BCMA-Compound 8, were evaluated using the following human cancer cell lines: K562, MM.1R and NCI-H929, purchased from the American Type Culture Collection (ATCC; Manassas, VA). The cells were cultured in RPMI-1640 medium (Gibco ThermoFisher; Waltham, MA) supplemented with 10% heat-inactivated fetal bovine serum (FBS: Corning; Corning, NY, USA) and 1× penicillin-streptomycin (Corning) and maintained at 37° C. in a 5% CO2 humidified environment.
(§6) The in vitro assays were performed as follows: Tumor cells were harvested by centrifugation at 300 g for 5 minutes and plated into 96-well clear bottom white-walled plates (5,000 to 10,000 cells/well in 50 μL complete medium) and maintained at 37° C. Cells were then treated in duplicate with 50 μL of test articles prepared at 2× final concentration that were serially diluted in complete medium and incubated at 37° C. for up to 120 hrs. After treatment, inhibition of cancer cell growth was determined using the Cell Titer-Glo® 2.0 Cell Viability Assay (Promega; Madison, WI, USA) as described by the manufacturers' protocol. Luminescence was measured using a Perkin-Elmer Envision 2104 Microplate Reader (Waltham, MA).
(§7) Data were normalized to non-treated controls using Microsoft Excel (Redmond, WA, USA) and analyzed using GraphPad Prism software (version 8; La Jolla, CA, USA). Half-maximal effective concentrations (EC50) were derived from dose response curves were generated using non-linear regression analysis fit to a 4-parameter logistic equation.

[8] = system: NCI-H929 tumor xenograft; experiment: In vivo efficacy, NCI-H929 tumor xenograft in SCID beige mice; parameters: species or system CB17 SCID beige mice; conditions: for tumor growth: i.p.
Method: (§8) Female CB17 SCID beige mice, 6 weeks of age, were purchased from Charles River Laboratories.
(§9) Human multiple myeloma tumor cell lines NCI-H929 and OPM2 were cultured and expanded in RPMI 1640 medium supplemented with 10% FBS, 100 units/ml of penicillin and 100 μg/ml of streptomycin at 37° C. in a 5% CO2 humidified environment for a period of 2-3 weeks before harvesting for implantation. Cell viability determined by Trypan blue dye exclusion assay was >90% before implantation. 5 million of OPM2 or NCI-H929 cells in 100 μl of PBS—Matrigel 1:1 (v/v) mixture were inoculated to the right upper flank of each mouse by s.c. injection.
(§10) Tumor volume measurement was started at day 14 after tumor cell inoculation and performed twice weekly. The longest longitudinal diameter as length and the widest transverse diameter as width were measured by using a digital caliper. Tumor volume (TV) were then calculated by the formula: TV=[length×(width)^2]/2 and were analyzed in Excel.
(§11) The treatment was started when average tumor size reaches ˜400, 200 and 150 mm^3 for NCI-H929 tumor xenografts in Experiment I, III and IV, respectively, or ˜240 mm^3 for OPM2 tumor xenograft in Experiment I.
Mice were euthanized when tumor size reached 2000 mm^3.
After tumor-bearing mice were randomized, anti-BCMA antibody (BCMA-AB1 or BCMA-AB2), anti-BCMA antibody conjugate with Compound 3 (BCMA-AB1-3 or BCMA-AB2-3) or iso-type antibody conjugate with Compound 3 (iso-3) diluted in PBS were administered to mice through i.p. injections. Treatment regimens included 8 mg/kg once, 4 mg/kg Q1W×2 and 2 mg/kg biw×4 of anti-BCMA-AB1 or anti-BCMA-AB1-Compound 3 in Experiment I (FIG. 3); 2 mg/kg biw×4 and 0.67 mg/kg biw×4 of anti-BCMA-AB1 or anti-BCMA-AB1-Compound 3 in Experiment II (FIG. 4); 1, 2, 4, and 8 mg/kg once of anti-BCMA-AB1-Compound 3 or iso-3 in Experiment III (FIG. 5); and 4 mg/kg biw×4 of anti-BCMA-AB2 or 2 and 4 mg/kg biw×4 of anti-BCMA-AB2-Compound 3 in Experiment IV (FIG. 6).
Raw data of tumor measurements were analyzed in Excel. Tumor growth curves were plotted using GraphPad Prism 8.0 software and values were presented as mean t SEM.

[9] = system: K562, MM.1R and NCI-H929; experiment: In vitro cell viability assay, Example B1, statements over several cell lines; assay type: cell-based, human; conditions: AB1 clone versus AB2 clone ADCs
Method: as §5
as §6, with “Cells were then treated in duplicate with 50 μL of test articles prepared at 2× final concentration that were serially diluted in complete medium and incubated at 37° C. for up to 120 hrs.” left out
Data were normalized to non-treated controls using Microsoft Excel (Redmond, WA, USA) and analyzed using GraphPad Prism software (version 8; La Jolla, CA, USA). […]

[10] = system: OPM2 tumor xenograft; experiment: In vivo efficacy, OPM2 tumor xenograft in SCID beige mice; parameters: species or system CB17 SCID beige mice; conditions: Experiment II, FIG. 4
Method: as §8, §9, §10, §11
Mice were euthanized when tumor size reached 2000 mm^3. […]
Raw data of tumor measurements were analyzed in Excel. […]

[11] = system: K562 (BCMA −) cells; experiment: In vitro cell viability assay (Cell Titer-Glo 2.0), Example B1; assay type: cell-based, human; conditions: Table 4; 5-day assays; AB1 clone; read-out: EC50 Values, Cell Line K562
Method: as §5, §6, §7

[12] = Table 7, 120-hour (5-day) assay, AB1 clone

Molecule: CC[C@H](C)[C@@H]([C@@H](CC(=O)N1CCC[C@H]1[C@H](OC)[C@@H](C)C(=O)N[C@H](CN=[N+]=[N-])Cc1ccc(NC(C)C)cc1)OC)N(C)C(=O)[C@@H](NC(=O)[C@H](C(C)C)N(C)C)C(C)C [D3, reference compound]
- EC50 [1, 12]: 1.52 nM
- EC50 [2, 12]: 1.08 nM
- EC50 [3]: 0.88 to 1.53 nM

B1: anti-BCMA-AB1-Compound 50 (antibody, human IgG1, V domains shown)
VH: EVQLVESGGGLVKPGGSLRLSCAASGFTSSTAWMSWVRQAPGKGLEWVGRIKSKSDGGTTDYAAPVKGRFTISRDDSKNTLFLQMNSLKTEDTAVYYCAKGGGTYGYWGQGTTVTVSS
VL: QSVLTQPASVSGSPGQSVTISCTGTSSAHGGHYYVSWYQQHPGKAPKLMIYDVSNRPSGVSNRFSGSKSGNTASLTISGLQAEDEADYYCGSYTSSGSYVFGTGTKLTVL
modifications: drug-linker Compound 50 on antibody cysteine thiols (C-lock linkage; positions not stated)
- EC50 of cell viability (CellTiter-Glo 2.0), NCI-H929 (BCMA-positive) cells, 120-hour assay [4]: 0.762 nM

B2: anti-BCMA-AB1-Compound 51 (antibody, human IgG1, V domains shown)
VH: B1 VH
VL: B1 VL
modifications: drug-linker Compound 51 on antibody cysteine thiols (C-lock linkage; positions not stated)
- EC50 of cell viability (CellTiter-Glo 2.0), NCI-H929 (BCMA-positive) cells, 120-hour assay [4]: 1.93 nM

B3: anti-BCMA-AB1-Compound 52 (antibody, human IgG1, V domains shown)
VH: B1 VH
VL: B1 VL
modifications: drug-linker Compound 52 on antibody cysteine thiols (C-lock linkage; positions not stated)
- EC50 of cell viability (CellTiter-Glo 2.0), NCI-H929 (BCMA-positive) cells, 120-hour assay [4]: 0.169 nM

B4: anti-BCMA-AB1-Compound 53 (antibody, human IgG1, V domains shown)
VH: B1 VH
VL: B1 VL
modifications: drug-linker Compound 53 conjugated to the antibody (PFP linkage; residues not stated)
- EC50 of cell viability (CellTiter-Glo 2.0), NCI-H929 (BCMA-positive) cells, 120-hour assay [4]: 0.398 nM

B5: anti-BCMA-AB1-Compound 3 (antibody, human IgG1, V domains shown)
VH: B1 VH
VL: B1 VL
modifications: drug-linker Compound 3 on antibody cysteine thiols (C-lock conjugation; positions not stated)
- EC50 of cell viability (Cell Titer-Glo), MM.1R (BCMA+) cells, 4-day assay [5]: 10 nM
- EC50 of cell viability (Cell Titer-Glo), NCI-H929 (BCMA+) cells, 4-day assay [5]: 2.21 nM
- EC50 of cell viability (Cell Titer-Glo), MM.1R (BCMA+) cells, 5-day assay [6]: 2.28 nM
- EC50 of cell viability (Cell Titer-Glo), NCI-H929 (BCMA+) cells, 5-day assay [6]: 0.699 nM
- EC50 of cell viability (CellTiter-Glo 2.0), NCI-H929 (BCMA-positive) cells, 120-hour assay [4]: 0.368 nM

B6: BCMA-AB1-8 (conjugate)
VH: B1 VH
VL: B1 VL
- cell killing of NCI-H929 [7]: comparable activity to the Gly2 peptide linker ADC, anti-BCMA-AB1-7

B7: BCMA-AB1-3: Compound 3 conjugated with anti-BCMA antibody clone BCA7-2C5 (AB1) (conjugate)
VH: B1 VH
VL: B1 VL
- activity against K562 cells ([1]; 5-day assays, FIG. 8): did not show activity
- effect on NCI-H929 cell viability ([2]; 5-day assays, FIG. 8): dose-dependently reduced
- tumor regression / elimination ([8]; Experiment I, FIG. 3, all regimens): induced dramatic and prolonged tumor regressions and eliminated all tumors in about two weeks after initial treatments
- tumor growth ([8]; Experiment I, FIG. 3, 8 mg/kg once, 4 mg/kg Q1W×2, 2 mg/kg biw×4, start ~400 mm^3): significantly inhibited tumor growth
- tumor regression / elimination ([8]; Experiment III, FIG. 5, high doses): induced dramatic and prolonged tumor regressions and eliminated all tumors in about two weeks after initial treatments
- tumor growth ([8]; Experiment III, FIG. 5, 1, 2, 4, and 8 mg/kg once): significantly inhibited tumor growth in a dose-dependent manner
- relative potency, comparison of Table 5 and Table 6 [9]: most potent
- tumor regression / elimination ([10]; high-dose regimen): induced dramatic and prolonged tumor regressions and eliminated all tumors in about two weeks after initial treatments
- tumor growth ([10]; i.p., 2 mg/kg biw×4 and 0.67 mg/kg biw×4): significantly and dose-dependently inhibited tumor growth
- EC50 [11]: > 100 nM

B8: BCMA-AB1-1: Compound 1 conjugated with anti-BCMA antibody clone BCA7-2C5 (AB1); DAR 3.8 (conjugate)
VH: B1 VH
VL: B1 VL
- EC50 [11]: > 100 nM

B9: BCMA-AB1-2: Compound 2 conjugated with anti-BCMA antibody clone BCA7-2C5 (AB1); DAR 3.4 (conjugate)
VH: B1 VH
VL: B1 VL
- EC50 [11]: > 100 nM

— US20240181073A1, “Antibody-Drug Conjugates Comprising an Anti-BCMA Antibody” (Sorrento Therapeutics, Inc., priority 2021, published 2024)
